This is an account of results in the nanobody polyreactivity screen of Harvey et al. (2022).

A short description of the series: yeast display, Sf9 membrane polyspecificity reagent, FACS + sequencing; frameworks hold sequencing errors. An outline of the steps:
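Galactose-induced (36–48 hours) yeast carrying a synthetic nanobody display library were exposed to 10% biotinylated, detergent-solubilized Sf9 membrane reagent at 4 °C for 1 hour. FACS followed streptavidin microbead enrichment, using low and high (top ~1%) gates for expression (anti-HA) and reagent binding (streptavidin). Colony PCR, MiSeq 2 × 250 sequencing and CDR-length filtering followed. Labels for polyreactivity reflect the gate of origin.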
For the sequence “QVQLVESGGGLVQAGGSLRLSCAASGFTFGSYAMGWYRQAPGKERELVAAITYRGGSTYYADSVKGRFTISRDNAKNTVYLQMNSLKPEDTAVYYCAADSRRKGNYWGQGTQVTVSS”, the “polyreactivity (PSR sort gate)” value was “high polyreactivity”.
As for “QVQLVESGGGLVQAGGSLRLSCAASGFTFGTYAMGWYRQAPGKERELVAAISARGGSTYYADSVKGRFTISRDNAKNTVYLQMNSLKPEDTAVYYCAAYYGRHVTPPTGYDYWGQGTQVTVSS”, the “polyreactivity (PSR sort gate)” value is listed as “high polyreactivity”.
With “QVQLVESGGGLVQAGGSLRLSCAASGFTFGTYAMGWYRQAPGKERELVAAITDGGGSTYYADSVKGRFSISRDNAKNTVYLQMNSLKPEDTAVYYCAAEFGYGWYTWLTGNDYWGQGTQVTVSS”, the “polyreactivity (PSR sort gate)” value was “low polyreactivity”.
As for “QVQLVESGGGLVQAGGSLRLSCAASGFTFGTYNMGWSRQAPGKERELVASISRRGGRTDYADSVKGRFTISRHNAKNTVYLQMNSLKPEDTAVYYCNAAYPYGGFPYDYWGQGTQVTVSS”, the entry is “high polyreactivity”.
In the case of “QVQLVESGGGLVQAGGSLRLSCAASGFTFGVYAMGWYRQAPGKERELVAAISTTVGSTYYADSVKGRFTISRDNAKNTVYLEMNSLKPEDTAVYYCAAEYTGYINYYIYEYWGQGTQVTVSS”, the “polyreactivity (PSR sort gate)” value is “low polyreactivity”.
In the case of “QVQLVESGGGLVQAGGSLRLSCAASGFTFGVYAMGWYRQAPGKERELVAAITATGGSTYYADSVKGRFTISRDNAKNTVYLQMNSLKPEDTAVYYCAADLDGTLSVYDYHTTGDDYWGQGTQVTVSS” it was “low polyreactivity”; in that of “QVQLVESGGGLVQAGGSLRLSCAASGFTFGVYAMGWYRQAPGKERELVAAITRSGGSTYYADSVKGRFTISRDNAKNTVYLQMNSLKPEDTAVYYCASRARDHYGYWGQGTQVTVSS”, “high polyreactivity”.
For “QVQLVESGGGLVQAGGSLRLSCAASGFTFGVYAMGWYRQAPGKERELVAAITWSGGRTYYADSVKGRFTISRDNAKNTVYLQMNSLKPEDTAVYYCAAVFYRYNAVRYDYWGQGTQVTVSS”, the “polyreactivity (PSR sort gate)” value is “high polyreactivity”.
On to “QVQLVESGGGLVQAGGSLRLSCAASGFTFGVYAMGWYRQAPGKERELVATISSSGSTNYADSVKGRFTISRDNAQNPVYLQMNSLKPEDTAVYYCAVYYLYRRRQYYYWGQGTQVTVSS”, for which the “polyreactivity (PSR sort gate)” value is listed as “low polyreactivity”.
Take “QVQLVESGGGLVQAGGSLRLSCAASGFTFGWNAMGWYRQAPGKERELVAAITSGGITNYADSVKGRFTISRDNAKNTVYLQMNSLKPEDTAVYYCNARPTSRRSWYYWKGYDYWGQGTQVTVSS”: the “polyreactivity (PSR sort gate)” value is listed as “high polyreactivity”.
As for “QVQLVESGGGLVQAGGSLRLSCAASGFTFGWYAMGWYRPAPGKERELVAAITTSGGRTNYADSVKGRFTISRDNAKNTVYLQMNSLKPEDTAVYYCNADSPYYVGGFDYWGQGTQVTVSS”, the entry is “low polyreactivity”.
As for “QVQLVESGGGLVQAGGSLRLSCAASGFTFGWYAMGWYRQSPGKERELVAAISYSGGSTYYADSVKGRFTISRDNAKNTVYLQMNSLKPEDTAVYYCNAVLRLRVDSWGQGTQVTVSS”, the “polyreactivity (PSR sort gate)” value was “high polyreactivity”.
As for “QVQLVESGGGLVQAGGSLRLSCAASGFTFGYNDMGWYRQAPGKERELVAGIRSGDDTNYADSVKGRFTISRDNAKNTVYLQMNSLKPEDTAVYYCAVGYGDYLYYDYDYWGQGTQVTVSS”, the “polyreactivity (PSR sort gate)” value is given as “low polyreactivity”.
For the sequence “QVQLVESGGGLVQAGGSLRLSCAASGFTFGYNEMGWYRQAQGKERELVAGIRSGDDTNYADSVKGRFTISRDNAKNTVYLQMNSLKPEDTAVYYCPRDPQFYLHTVPDGAYNYWGQGTQVTVSS”, the “polyreactivity (PSR sort gate)” value is “low polyreactivity”.
In the case of “QVQLVESGGGLVQAGGSLRLSCAASGFTFGYYAMGWYRQAPGKERELVAAISWSGSSTYYSDSVKGRFTISRDNAKNTVYLQMNSLKPEATAVYYCAAELGDAYYYWGQGTQVTVSS” it was “high polyreactivity”.
“QVQLVESGGGLVQAGGSLRLSCAASGFTFGYYAMGWYRQAPGKERELVAAITNSGGSTYYADSVKGRFTISRDNAKNTVYLQMNSLKPEDTAVYYCAAEISILPFVTPDTIYGYWGQGTQVTVSS”: the “polyreactivity (PSR sort gate)” value is listed as “low polyreactivity”.
